One block for each binder: values may come before it.
Assays:
[1] = biological target: T1, recombinant human CD28/Fc Chimera (R&D Systems) (human, UniProt P10747 19-152); test: SPR (BIAcore), CM5 chip coated with 12500 RU CD28-Fc; dAb injected at 57.5 µM
T1 construct: Bought reagent (R&D Systems, Abingdon, UK); not shown: Fc portion of the bought chimera
From the text: (§1) All 58 clones were expressed and purified and tested on the BIAcore against a CM5 chip coated with 12500 RU (response units) of CD28-Fc. […] The protein concentrations used for BIAcore analysis were: […]

[2] = biological target: T1, recombinant human CD28/Fc Chimera (R&D …); test: SPR (BIAcore), CM5 chip coated with 12500 RU CD28-Fc; dAb injected at 42.3 µM
From the text: as §1

[3] = biological target: T1, recombinant human CD28/Fc Chimera (R&D …); test: SPR (BIAcore), CM5 chip coated with 12500 RU CD28-Fc; dAb injected at 13.8 µM
From the text: as §1

[4] = biological target: T1, recombinant human CD28/Fc Chimera (R&D …); test: SPR (BIAcore), CM5 chip coated with 12500 RU CD28-Fc; dAb injected at 14.7 µM
From the text: as §1

[5] = biological target: T1, recombinant human CD28/Fc Chimera (R&D …); test: SPR (BIAcore), CM5 chip coated with 12500 RU CD28-Fc; dAb injected at 19.4 µM
From the text: as §1

[6] = biological target: T1, recombinant human CD28/Fc Chimera (R&D …); test: SPR (BIAcore), CM5 chip coated with 12500 RU CD28-Fc; dAb injected at 16.6 µM
From the text: as §1

[7] = biological target: T1, recombinant human CD28/Fc Chimera (R&D …); test: SPR (BIAcore), CM5 chip coated with 12500 RU CD28-Fc; dAb injected at 68.1 µM
From the text: as §1

[8] = biological target: T1, recombinant human CD28/Fc Chimera (R&D …); test: SPR (BIAcore), CM5 chip coated with 12500 RU of CD28-Fc, purified dAb, concentration not given
From the text: as §1

binding result [1]: binds
B1: DOM21-20 (other)
VH: EVQLLESGGGLVQPGGSLRLSCAASGFTFPAYSMIWVRQAPGKGLEWVSTISPLGYSTYYADSVKGRFTISRDNSKNTLYLQMNSLRAEDTAVYYCAEQTAYLNRATEHFDYWGQGTLVTVSS
notes: Human VH antibody single variable domain (dAb), expressed from pDOM5 and purified

binding result [2]: binds
B2: DOM21-4 (other)
VH: EVQLLESGGGLVQPGGSLRLSCAASGFTFSRYHMAWVRQAPGKGLEWVSVIDSLGLQTYYADSVKGRFTISRDNSKNTLYLQMNSLRAEDTAVYYCAEYGGAFDYWGQGTLVTVSS
notes: Human VH antibody single variable domain (dAb), DP47/JH4b framework, expressed from pDOM5 and purified

binding result [3]: binds
B3: DOM21-18 (other)
VL: DIQMTQSPSSLSASVGDRVTITCRASQYIGTSLNWYQQKPGKAPKLLTYQASLLQSGVPSRFSGSGSGTDFTLTISSLQPEDFATYYCQQLALRPMTFGQGTKVEIKR
notes: Human Vkappa antibody single variable domain (dAb), DPK9/Jk1 framework, expressed from pDOM5 and purified

binding result [4]: binds
B4: DOM21-27 (other)
VL: DIQMTQSPSSLSASVGDRVTITCRASQSIGTGLRWYQQKPGKAPMLLIYRASILQSGVPSRFSGSGSGTDFTLTISSLQPEDFATYYCQQTTLQPFTFSQGTKVEIKR
notes: Human Vkappa antibody single variable domain (dAb), expressed from pDOM5 and purified

binding result [5]: binds
B5: DOM21-22 (other)
VH: EVQLLESGGGLVQPGGSLRLSCAASGFTFELYQMGWVRQAPGKGLEWVSTIMPSGNLTYYADSVKGRFTISRDNSKNTLYLQMNSLRAEDTAVYYCAKMWSLNLGFHAAFDYWGQGTLVTVSS
notes: as for B1

binding result [6]: binds
B6: DOM21-28 (other)
VL: DIQMTQSPSSLSASVGDRVTITCRASQSISHSLVWYQQKPGKAPKLLIYWASLLQSGVPSRFSGSGSGTDFTLTISSLQPEDFATYYCQQGMTTPFTFGQGTKVEIKR
notes: as for B4

binding result [7]: binds
B7: DOM21-6 (other)
VH: EVQLLESGGGLVQPGGSLRLSCAASGFTFENYGMAWVRQAPGKGLEWVSNIGRAGSVTYYADSVKGRFTISRDNSKNTLYLQMNSLRAEDTAVYYCAKVQSWRTFDYWGQGTLVTVSS
notes: as for B1

binding result [8]: binds
B8: DOM21-44 (other)
VH: EVQLLESGGGLVQPGGSLRLSCAASGFTFARYTMVWVRQAPGKGLEWVSAIHFDGRTTYYADSVKGRFTISRDNSKNTLYLQMNSLRAEDTAVYYCAKNEWASLKHFDYWGQGTLVTVSS
notes: as for B1

binding result [8]: binds
B9: DOM21-38 (other)
VH: EVQLLESGGGLVQPGGSLRLSCAASGFTFILYDMQWVRQAPGKGLEWVSRISANGHDTYYADSVKGRFTISRDNSKNTLYLQMNSLRAEDTAVYYCAKGPHYLFDYWGQGTLVTVSS
notes: as for B1
